T1: murine CD300LB stably expressed on Jurkat cells (mouse, UniProt Q3U497 18-209)
T1 construct: also called muCD300LB; mouse CD300LB
T1 sequence: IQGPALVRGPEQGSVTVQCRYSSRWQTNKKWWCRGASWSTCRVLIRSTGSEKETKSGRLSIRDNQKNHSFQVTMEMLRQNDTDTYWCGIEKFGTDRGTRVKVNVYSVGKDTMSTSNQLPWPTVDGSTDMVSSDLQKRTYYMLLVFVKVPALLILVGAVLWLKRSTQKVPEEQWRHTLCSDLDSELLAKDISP

T2: murine CD300E-Fc (mouse)
T2 construct: mouse IgG2a-Fc fusion (R&D Systems); the entry is the whole fusion chain; also called mCD300E; Mouse CD300E-Fc
T2 chain: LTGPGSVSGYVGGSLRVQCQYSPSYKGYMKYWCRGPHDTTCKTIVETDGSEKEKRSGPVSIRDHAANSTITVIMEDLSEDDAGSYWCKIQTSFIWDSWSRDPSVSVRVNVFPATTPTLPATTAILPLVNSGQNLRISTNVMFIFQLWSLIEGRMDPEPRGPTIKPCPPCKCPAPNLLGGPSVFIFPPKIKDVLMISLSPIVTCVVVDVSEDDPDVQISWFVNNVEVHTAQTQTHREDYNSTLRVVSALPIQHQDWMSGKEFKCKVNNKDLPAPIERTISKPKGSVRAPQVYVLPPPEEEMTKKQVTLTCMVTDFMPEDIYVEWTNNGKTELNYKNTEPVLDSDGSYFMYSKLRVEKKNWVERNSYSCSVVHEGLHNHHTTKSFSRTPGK

B1: anti-CD300LB antibody CD-12 (antibody, V domains shown)
VH: QIQLVQSGPELKKPGETVKISCKASGYTFTDYSMHWVRQAPGKGLKWMAWINTETGEATHADDFKGRFDFSLDTSASTAYLQIKNLKNEDTGIYFCVCYGSSYGMDYWGQGTSVTVSS
VL: DIVLTQSPASLPVSLGQRATISCRASKSVRTSGASYMHWYQQKPGQPPKLLIYLASNLKSGVPTRFSGSGSGTDFTLNIHPVEEEDAATYYCQHNREVPPTFGGGTKLEIK
B2: anti-CD300LB antibody CD-13 (antibody, V domains shown)
VH: QIQLVQSGPELKKPGETVKISCKASGYTFTDYSMHWVKQAPGKGFKWMAWINTETGAPTHADDFRGRFAFSLETSASTAFLQISNLKTEDTATYFCVTFGKSYGMNYWGQGTSVTVSS
VL: B1 VL with P12S, R30G, T31S, A34S, M37L, K59E, T64A, D74E, R96A
B3: anti-CD300LB antibody CD-15 (antibody, V domains shown)
VH: QIQLVQSGPELKKPGETVKISCQVSGYTFTDYSMHWLKQAPGKGLKWMAWINTETGESTYTDEFKGRFVFSLETSVRTAYLKINNLKNEDTATYFCGTYGSSYGMAYWGQGTSVTVSS
VL: B1 VL with R30S, A34S, M37L, N57K, K59E, T64A, S67R
B4: anti-CD300LB antibody CD-16 (antibody, V domains shown)
VH: QIQLVQSGPELKKPGETVKISCKASGYTFTDYSMHWVKQAPGKGLKWMAWINTETGEPTYADDFRGRFAFSLETSGRTAYLEINNLRNEDTATYFCVTYGSSYGMAYWGQGTSVTVSS
VL: B1 VL with P12A, R30S, T31R, A34Y, M37L, N57K, K59E, T64A, E84A, V98I
B5: anti-CD300LB antibody CD-11 (antibody, V domains shown)
VH: QIQLVQSGPEVKKPGETVKISCKASGYTLTDYSMHWVMQTPGTGLKWMAWMNTETGEPTYADDFKGRFAFSLETSAGTAYLQIDNLKNEDTATYFCATYGKSYGMKYWGQGTSVTVSS
VL: DIVLTQSPPSLAVSLGQRATISCRATKSVSPYLHWYQQTPGQPPKLLIYLASNLDSGVPARFSGSGSGTDFTLNIHPVEEEDAATYYCQHNKELPPTFGGGTRLEIK
B6: anti-CD300LB antibody CD-14 (antibody, V domains shown)
VH: QIQLVQSGPELKKPGETVKISCKASGYTFTDYSLHWVKQTPEKNLKWMAWINTETGAPTYADDFKGRFAFSLETSSNTAYLLINNLKNEDTATYFCALTMVNYWGQGTTLTVSS
VL: DIVMTQSQKFMSTSVGDRVSVTCKASQNVGIRVAWHQQKPGQSPKTLIYSTSYRYSGVPDRFTGSGSGTEFILTISNVQSEDLAEYFCQQYNSYPYTFGGGTKLEIK
B7: anti-CD300LB antibody CD-01 (antibody, V domains shown)
VH: RVQLQQSGAELVRPGASVTLSCKASGFTFTDFEMHWVKKTPVHGLEWIGAIDPESGNTAYNQKFRGKATLTADKSSSTAYMELRYLTSEDSAVYYCTPLISGADYWGQGTTLTVSS
VL: DVVMTQSPLSLPVSLGDQASISCRSSQSLVHSDGNTYLYWYLQKPGQSPKLLIYKVSNRFSGVPDRFSGSGSGTDFTFKISRVGAEDLGVYFCSQSTHVPWTFGGGTKLEII
B8: anti-CD300LB antibody CD-05 (antibody, V domains shown)
VH: QVQLVQSGAEVKKPGASVKVSCKASGYTFSRYYINWVRQAPGQGLEWMGWINPNSGGTNYAQKFQGRVTMTRDTSTSTVYMELSSLRSEDTAVYYCTTDQLRFGKTGPYYGMDVWGQGTTVTVSS
VL: DIQMTQSPSSLSASVGDRVTITCRASQNIGTYLNWYQQKPGKAPKLLIYAASSLQSGVPSRFSGSGSGTDFTLTISSLQPEDFATYYCQQSYSDTLTFGGGTKVEIK
B9: anti-CD300LB antibody CD-06 (antibody, V domains shown)
VH: QVQLVQSGAEVKKPGASVKVSCKASGYTFTTYAVHWVRQAPGQGLEWMGIVNPNSGGTNYAQKFQGRVTMTRDTSTSTVYMELSSLRSEDTAVYYCARDIVPMNNFYNYYYGMDVWGQGTTVTVSS
VL: B8 VL with N28S, G30S, T31S, A51T, S53T, S93R, D94I, T95P, L96Y, G100Q
B10: anti-CD300LB antibody CD-02 (antibody, V domains shown)
VH: QVQLQQPGAELVRPGSSVKLSCQASGYTFTNYWMHWVRQRPIQGLEWIGNIDPSDSETHYNQKFKDRATLTVDKSSSTAYMQLSSLTSEDSAVYYCARSGVYDDEGGDYWGQGTTLTVSS
VL: ENVLTQSPAIMSASPGEKVTMTCSASSSVSYIHWYQQKSSTSPKLWIYDTSKLASGVPGRFSGSGSGNSYSLTISSMETEDVATYYCFQGSGYPLTFGAGTKLELK

Substitutions are numbered along the chain they refer to.

The target of the first assay is T1, murine CD300LB stably expressed on …. Description: flow cytometry, stable Jurkat cells, 10 ug/mL, isotype subtracted. The protocol: Purified anti-CD300LB antibodies of the present disclosure were analyzed for cross-reactivity to other murine CD300 family members stably expressed in Jurkat cells (generation of which is described above). Cells were counted and labeled with 200 nM CFSE, 500 nM VioBlue, or a combination of the two to discriminate between muCD300LB, Parental cells, CD300F, and the other CD300 family members. Cells were washed thoroughly with PBS containing 2% fetal bovine serum then resuspended at a total of 240,000 cells per well. Purified antibodies at 10 μg/mL were added and incubated for one hour before the cells were washed twice again and stained with an APC-labeled anti-mouse secondary. Cells were then analyzed using a BD FACSCanto II. Antibodies were analyzed for specific binding to muCD300LB by FlowJo software by gating on live cells, then the APC gMFI calculated for each labeled population by subtracting the gMFI of the isotype control. The gMFI results of the analysis are presented below in Table 4.
As to B1, the gMFI was 4210 gMFI.

On to B2, for which the gMFI was found to be 7600 gMFI.

On to B3, for which the gMFI was 4140 gMFI.

B4: the gMFI was 4570 gMFI.

B5: the gMFI amounted to 4660 gMFI.

Turning to B6, the gMFI worked out at 9550 gMFI.

In a further assay the target is T2, murine CD300E-Fc. Description: SPR (Carterra LSA), antibody immobilised. An excerpt:
(§1) In addition to the screening of antibodies for cross-reactivity by FACS analysis, surface plasmon resonance (SPR) analysis was used to determine the binding of antibodies to recombinant huCD300 and muCD300 family members (orthologs) conjugated to an Fc (human CD300A-Fc SEQ ID NO:144; human CD300LB-Fc SEQ ID NO:145; human CD300C-Fc SEQ ID NO: 146; human CD300D-Fc SEQ ID NO: 147; human CD300E-Fc SEQ ID NO: 148; human CD300F-Fc SEQ ID NO: 149; murine CD300A-Fc SEQ ID NO: 150; murine CD300LB-Fc SEQ ID NO:151; murine CD300C-Fc SEQ ID NO: 152; murine CD300D-Fc SEQ ID NO: 153, and murine CD300E-Fc SEQ ID NO: 154).
(§2) Binding of mouse anti-CD300LB IgG1 antibodies of the present disclosure to human and murine CD300 orthologs were evaluated by surface plasmon resonance (SPR) using a Carterra LSA instrument (Carterra, Salt Lake City, UT). […] A HC200M sensor chip (Carterra) was activated using the single channel flow cell with a 7-minute injection of a 1:1:1 mixture of 100 mM MES pH 5.5, 100 mM sulfo-NHS, 400 mM EDC (all reconstituted in MES pH 5.5; 100 μL of each mixed in vial immediately before running assay). After switching to the multi-channel array flow cell, the antibodies were injected over the activated chip in a 96-spot array for 10 minutes. The remaining unconjugated active groups on the chip were then blocked by injecting 1M Ethanolamine pH 8.5 (Carterra) for 7 minutes using the single channel flow cell. After priming with running buffer (HBS-TE, Carterra) with 0.5 mg/ml BSA (Sigma), the immobilized anti-CD300LB antibodies were tested for their ability to bind human and mouse recombinant CD300LB extracellular domains. Human CD300 family members and mouse CD300A were hIgG1-Fc fusions, while mouse CD300LB, mouse CD300C, mouse CD300D, and mouse CD300E were mouse IgG2a-Fc fusions (R&D Systems). Binding was assessed by injecting each analyte over the entire antibody array using the single channel flow cell. CD300 analytes were diluted to 300 nM or 600 nM in running buffer and injected in series without regeneration. Two or three buffer blanks were run between each mouse or human ortholog, respectively. Data were processed and analyzed using NextGenKIT high-throughput kinetics analysis software (Carterra).
Turning to B1, the binding result was “no binding (tested: 300 nM or 600 nM)”.

Turning to B2, the binding result is listed as “no binding (tested: 300 nM or 600 nM)”.

As to B3, the binding result is reported as “no binding (tested: 300 nM or 600 nM)”.

For B4, the binding result is recorded as “no binding (tested: 300 nM or 600 nM)”.

For B5, the binding result is listed as “no binding (tested: 300 nM or 600 nM)”.

On to B6, for which the binding result is “no binding (tested: 300 nM or 600 nM)”.

In a further assay the target is T3, murine CD300A-Fc (mouse).
T3 construct: hIgG1-Fc fusion; the entry is the whole fusion chain; also called mCD300A; Mouse CD300A-Fc
T3 sequence (chain, as listed by the source limits assumed): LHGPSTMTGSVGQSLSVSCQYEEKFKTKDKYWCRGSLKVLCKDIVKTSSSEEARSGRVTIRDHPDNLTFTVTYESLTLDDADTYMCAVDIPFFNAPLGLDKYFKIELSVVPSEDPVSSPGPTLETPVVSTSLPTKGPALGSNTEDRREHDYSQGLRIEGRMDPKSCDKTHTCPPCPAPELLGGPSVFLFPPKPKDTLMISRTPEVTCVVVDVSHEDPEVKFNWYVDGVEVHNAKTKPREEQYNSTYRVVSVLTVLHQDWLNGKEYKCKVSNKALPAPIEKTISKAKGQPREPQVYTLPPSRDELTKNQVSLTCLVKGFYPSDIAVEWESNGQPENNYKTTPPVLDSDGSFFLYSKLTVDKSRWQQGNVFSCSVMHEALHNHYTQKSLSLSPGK
Nature of the assay: SPR (Carterra LSA), antibody immobilised.
From the text: as §1, §2
For the molecule B1, the binding result is recorded as “no binding (tested: 300 nM or 600 nM)”.

Take B2: the binding result is given as “no binding (tested: 300 nM or 600 nM)”.

As for B3, the binding result is listed as “no binding (tested: 300 nM or 600 nM)”.

As for B4, the binding result is “no binding (tested: 300 nM or 600 nM)”.

Turning to B5, the binding result was “no binding (tested: 300 nM or 600 nM)”.

For B6, the binding result is given as “no binding (tested: 300 nM or 600 nM)”.

The target in a further assay is T1, murine CD300LB stably expressed on …. Description: flow cytometry, stable Jurkat cells, supernatant or 10 ug/mL, isotype subtracted. The protocol: Purified anti-CD300LB antibodies of the present disclosure were also evaluated for species cross-reactivity to mouse and human CD300LB stably expressed in Jurkat cells (generation of which is described above). Cells were counted and labeled with 200 nM CFSE, 500 nM VioBlue, or a combination of the two to discriminate between human CD300LB, Parental cells and mouse CD300LB. Cells were washed thoroughly with PBS containing 2% fetal bovine serum then resuspended at a total of 240,000 cells per well. Hybridoma supernatants (100 L) or purified antibodies at 10 μg/mL were added and incubated for one hour before the cells were washed again and stained with an APC-labeled anti-human or anti-mouse secondary. Cells were then analyzed using a BD FACSCanto II. Antibodies were analyzed for binding to mouse or human CD300LB by FlowJo software by gating on live cells, then the APC gMFI calculated for each labeled population by subtraction of the gMFI of the appropriate isotype control.
For B2, the gMFI is 1190 gMFI.

As to B3, the gMFI was 506 gMFI.

As to B4, the gMFI worked out at 504 gMFI.

Consider B7, for which the gMFI came out at 860 gMFI.

As for B8, the gMFI is 172 gMFI.

Turning to B9, the gMFI is -48.7 gMFI.

In the case of B5, the gMFI was determined as 320 gMFI.

Consider B10, for which the gMFI stood at 23 gMFI.

On to B6, for which the gMFI is 950 gMFI.

The values are drawn from patent US20240254227A1 (Alector, published 2024).
